{
  "source": "patent US20140302035A1",
  "about": "(MERRIMACK PHARMACEUTICALS, published 2014)",
  "binders": {"B1": {"name": "Onartuzumab-23E (antibody)", "heavy": "EVQLVESGGGLVQPGGSLRLSCAASGYTFTSYWLHWVRQAPGKGLEWVGMIDPSNSDTRFNPNFKDRFTISADTSKNTAYLQMNSLRAEDTAVYYCATYRSYVTPLDYWGQGTLVTVSSASTKGPSVFPLAPSSKSTSGGTAALGCLVKDYFPEPVTVSWNSGALTSGVHTFPAVLQSSGLYSLSSVVTVPSSSLGTQTYICNVNHKPSNTKVDKKVEPKSCDKTHTCPPCPAPELLGGPSVFLFPPKPKDTLMISRTPEVTCVVVDVSHEDPEVKFNWYVDGVEVHNAKTKPREEQYQSTYRVVSVLTVLHQDWLNGKEYKCKVSNKALPAPIEKTISKAKGQPREPQVYTLPPSREEMTKNQVSLSCAVKGFYPSDIAVEWESNGQPENNYKTTPPVLDSDGSFFLVSKLTVDKSRWQQGNVFSCSVMHEALHNHYTQKSLSLSKSCDKTGGGGSGGGGSGGGGSGGGGSGGGGSGGGGSGGGGSGGGGSCPPCPAPELLGGPSVFLFPPKPKDTLMISRTPEVTCVVVDVSHEDPEVKFNWYVDGVEVHNAKTKPREEQYQSTYRVVSVLTVLHQDWLNGKEYKCKVSNKALPAPIEKTISKAKGQPREPQVYTLPPSREEMTKNQVSLWCLVKGFYPSDIAVEWESNGQPENNYKTTPPVLDSDGSFFLYSKLTVDKSRWQQGNVFSCSVMHEALHNHYTQKSLSLSGEC", "light": "DIQMTQSPSSLSASVGDRVTITCKSSQSLLYTSSQKNYLAWYQQKPGKAPKLLIYWASTRESGVPSRFSGSGSGTDFTLTISSLQPEDFATYYCQQYYAYPWTFGQGTKVEIKRTVAAPSVFIFPPSDEQLKSGTASVVCLLNNFYPREAKVQWKVDNALQSGNSQESVTEQDSKDSTYSLSSTLTLSKADYEKHKVYACEVTHQGLSSPVTKSFNRGEC", "notes": "Monovalent tandem Fc antibody: onartuzumab anti-c-Met Fab on IgG1 TFc 23E"}, "B2": {"name": "Onartuzumab-23 (antibody)", "heavy": "EVQLVESGGGLVQPGGSLRLSCAASGYTFTSYWLHWVRQAPGKGLEWVGMIDPSNSDTRFNPNFKDRFTISADTSKNTAYLQMNSLRAEDTAVYYCATYRSYVTPLDYWGQGTLVTVSSASTKGPSVFPLAPSSKSTSGGTAALGCLVKDYFPEPVTVSWNSGALTSGVHTFPAVLQSSGLYSLSSVVTVPSSSLGTQTYICNVNHKPSNTKVDKKVEPKSCDKTHTCPPCPAPELLGGPSVFLFPPKPKDTLMISRTPEVTCVVVDVSHEDPEVKFNWYVDGVEVHNAKTKPREEQYQSTYRVVSVLTVLHQDWLNGKEYKCKVSNKALPAPIEKTISKAKGQPREPQVYTLPPSREEMTKNQVSLSCAVKGFYPSDIAVEWESNGQPENNYKTTPPVLDSDGSFFLVSKLTVDKSRWQQGNVFSCSVMHEALHNHYTQKSLSLSPGKGGGGSGGGGSGGGGSGGGGSGGGGSGGGGSGGGGSGGGGSCPPCPAPELLGGPSVFLFPPKPKDTLMISRTPEVTCVVVDVSHEDPEVKFNWYVDGVEVHNAKTKPREEQYQSTYRVVSVLTVLHQDWLNGKEYKCKVSNKALPAPIEKTISKAKGQPREPQVYTLPPSREEMTKNQVSLWCLVKGFYPSDIAVEWESNGQPENNYKTTPPVLDSDGSFFLYSKLTVDKSRWQQGNVFSCSVMHEALHNHYTQKSLSLSPGK", "light": "B1 light", "notes": "Monovalent tandem Fc antibody: onartuzumab anti-c-Met Fab on IgG1 TFc 23"}, "B3": {"name": "Onartuzumab-39 (antibody)", "heavy": "EVQLVESGGGLVQPGGSLRLSCAASGYTFTSYWLHWVRQAPGKGLEWVGMIDPSNSDTRFNPNFKDRFTISADTSKNTAYLQMNSLRAEDTAVYYCATYRSYVTPLDYWGQGTLVTVSSASTKGPSVFPLAPSSKSTSGGTAALGCLVKDYFPEPVTVSWNSGALTSGVHTFPAVLQSSGLYSLSSVVTVPSSSLGTQTYICNVNHKPSNTKVDKKVEPKSCDKTHTCPSCPAPEFLGGPSVFLFPPKPKDTLMISRTPEVTCVVVDVSQEDPEVQFNWYVDGVEVHNAKTKPREEQFNSKYRVVSVLTVLHQDWLNGKEYKCKVSNKGLPSSIEKTISKAKGQPREPQVYTLPPSREEMTKNQVSLSCAVKGFYPSDIAVEWESNGQPENNYKTTPPVLDSDGSFFLVSKLTVDKSRWQQGNVFSCSVMHEALHNHYTQKSLSLSPGKGGGGSGGGGSGGGGSGGGGSGGGGSGGGGSGGGGSGGGGSCPSCPAPEFLGGPSVFLFPPKPKDTLMISRTPEVTCVVVDVSQEDPEVQFNWYVDGVEVHNAKTKPREEQFNSKYRVVSVLTVLHQDWLNGKEYKCKVSNKGLPSSIEKTISKAKGQPREPQVYTLPPSREEMTKNQVSLWCLVKGFYPSDIAVEWESNGQPENNYKTTPPVLDSDGSFFLYSKLTVDKSRWQQGNVFSCSVMHEALHNHYTQKSLSLSPGK", "light": "B1 light", "notes": "Monovalent tandem Fc antibody: onartuzumab anti-c-Met Fab on IgG1/IgG4 hybrid TFc 39"}, "B4": {"name": "Onartuzumab-39EGY4-2224 (bispecific antibody)", "heavy": "EVQLVESGGGLVQPGGSLRLSCAASGYTFTSYWLHWVRQAPGKGLEWVGMIDPSNSDTRFNPNFKDRFTISADTSKNTAYLQMNSLRAEDTAVYYCATYRSYVTPLDYWGQGTLVTVSSASTKGPSVFPLAPSSKSTSGGTAALGCLVKDYFPEPVTVSWNSGALTSGVHTFPAVLQSSGLYSLSSVVTVPSSSLGTQTYICNVNHKPSNTKVDKKVEPKSCDKTHTCPSCPAPEFLGGPSVFLFPPKPKDTLMISRTPEVTCVVVDVSQEDPEVQFNWYVDGVEVHNAKTKPREEQFNSKYRVVSVLTVLHQDWLNGKEYKCKVSNKGLPSSIEKTISKAKGQPREPQVYTLPPSREEMTKNQVSLSCAVKGFYPSDIAVEWESNGQPENNYKTTPPVLDSDGSFFLVSKLTVDKSRWQQGNVFSCSVMHEALHNHYTQKSLSLSKSCDKTGGGGSGGGGSGGGGSGGGGSGGGGSGGGGSGGGGSGGGGSCPSCPAPEFLGGPSVFLFPPKPKDTLMISRTPEVTCVVVDVSQEDPEVQFNWYVDGVEVHNAKTKPREEQFNSDYRVVSVLTVLHQDWLNGKEYKCKVSNKGLPSSIEKTISKAKGQPREPQVYTLPPSREEMTKNQVSLWCLVKGFYPSDIAVEWESNGQPENNYKTTPPVLDSDGSFFLYSKLTVDKSRWQQGNVFSCSVMHEALHNHYTQKSLSLSGECGGGGSGGGGSEVQLVQSGAEVKKPGSSVKVSCKASGGTFSSYAIGWVRQAPGQGLEWMGGIIPIFGIANYAQKFQGRVTITADESTSSAYMELSSLRSEDTAVYYCAREEGPYCSSTSCYAAFDIWGQGTLVTVSSASTGGGGSGGGGSGGGGSGGGGSQSVLTQDPAVSVALGQTVKITCQGDSLRSYFASWYQQKPGQAPTLVMYARNDRPAGVPDRFSGSKSGTSASLAISGLQPEDEADYYCAAWDDSLNGYLFGAGTKLTVL", "light": "B1 light", "notes": "Anti-c-Met Fab / TFc 39E glycoform 4 / anti-EGFR 2224 scFv; also called Onartuzumab-39EGY4-224; onartuzumab-39Egy-2224"}, "B5": {"name": "Onartuzumab-39EGY4 (antibody)", "heavy": "EVQLVESGGGLVQPGGSLRLSCAASGYTFTSYWLHWVRQAPGKGLEWVGMIDPSNSDTRFNPNFKDRFTISADTSKNTAYLQMNSLRAEDTAVYYCATYRSYVTPLDYWGQGTLVTVSSASTKGPSVFPLAPSSKSTSGGTAALGCLVKDYFPEPVTVSWNSGALTSGVHTFPAVLQSSGLYSLSSVVTVPSSSLGTQTYICNVNHKPSNTKVDKKVEPKSCDKTHTCPSCPAPEFLGGPSVFLFPPKPKDTLMISRTPEVTCVVVDVSQEDPEVQFNWYVDGVEVHNAKTKPREEQFNSKYRVVSVLTVLHQDWLNGKEYKCKVSNKGLPSSIEKTISKAKGQPREPQVYTLPPSREEMTKNQVSLSCAVKGFYPSDIAVEWESNGQPENNYKTTPPVLDSDGSFFLVSKLTVDKSRWQQGNVFSCSVMHEALHNHYTQKSLSLSKSCDKTGGGGSGGGGSGGGGSGGGGSGGGGSGGGGSGGGGSGGGGSCPSCPAPEFLGGPSVFLFPPKPKDTLMISRTPEVTCVVVDVSQEDPEVQFNWYVDGVEVHNAKTKPREEQFNSDYRVVSVLTVLHQDWLNGKEYKCKVSNKGLPSSIEKTISKAKGQPREPQVYTLPPSREEMTKNQVSLWCLVKGFYPSDIAVEWESNGQPENNYKTTPPVLDSDGSFFLYSKLTVDKSRWQQGNVFSCSVMHEALHNHYTQKSLSLSGEC", "light": "B1 light", "notes": "Monovalent tandem Fc antibody: onartuzumab anti-c-Met Fab on IgG1/IgG4 hybrid TFc 39E glycoform 4"}, "B6": {"name": "Ab#12 (bispecific antibody)", "heavy": "QLQLQESGPGLVKPSETLSLTCTVSGGSISSSVYYWSWIRQPPGKGLEWIGVIYPSGNTYYSPSLKSRVTISVDTSKNQFSLKLSSVTAADTAVYYCARTIYDLFDIWGQGTMVTVSSASTKGPSVFPLAPSSKSTSGGTAALGCLVKDYFPEPVTVSWNSGALTSGVHTFPAVLQSSGLYSLSSVVTVPSSSLGTQTYICNVNHKPSNTKVDKKVEPKSCDKTHTCPSCPAPEFLGGPSVFLFPPKPKDTLMISRTPEVTCVVVDVSQEDPEVQFNWYVDGVEVHNAKTKPREEQFNSKYRVVSVLTVLHQDWLNGKEYKCKVSNKGLPSSIEKTISKAKGQPREPQVYTLPPSREEMTKNQVSLSCAVKGFYPSDIAVEWESNGQPENNYKTTPPVLDSDGSFFLVSKLTVDKSRWQQGNVFSCSVMHEALHNHYTQKSLSLSKSCDKTGGGGSGGGGSGGGGSGGGGSGGGGSGGGGSGGGGSGGGGSCPSCPAPEFLGGPSVFLFPPKPKDTLMISRTPEVTCVVVDVSQEDPEVQFNWYVDGVEVHNAKTKPREEQFNSDYRVVSVLTVLHQDWLNGKEYKCKVSNKGLPSSIEKTISKAKGQPREPQVYTLPPSREEMTKNQVSLWCLVKGFYPSDIAVEWESNGQPENNYKTTPPVLDSDGSFFLYSKLTVDKSRWQQGNVFSCSVMHEALHNHYTQKSLSLSGECGGGGSGGGGSDIVMTQSPSSLSASVGDKATITCRSTKSLLHSDGITYLYWYLQKPGKAPKLLIYQLSNLASGVPDRFSSSGSGTEFTLTISSVQPEDEGTYYCAQNLEIPRTFGQGTKLEIKRTGGGGSGGGGSGGGGSGGGGSGQVQLQQSGGGLVKPGESVKISCAASGYTFTNYGMNWVKQAPGKGLKWMGWINTYTGESTYADDFKGRFTFSLETSASAAYLQINSLRPEDTAVYFCARFAIKGDYWGQGTTVTVSS", "light": "DIQMTQSPSSVSASVGDRVTITCRASQGISSWLAWYQQKPGKAPKLLIYAASSLQSGVPSRFSGSGSGTDFTLTISSLQPEDFATYYCLQANSFPPTFGGGTKVEIKRTVAAPSVFIFPPSDEQLKSGTASVVCLLNNFYPREAKVQWKVDNALQSGNSQESVTEQDSKDSTYSLSSTLTLSKADYEKHKVYACEVTHQGLSSPVTKSFNRGEC", "notes": "Anti-c-Met Fab / tandem Fc / anti-EpCAM scFv TFcBA; also called Antibody #12"}},
  "key": {"cMet-his": {"biological_target": "T1, cMet-his (Homo sapiens (Human), UniProt P08581 25-933)", "T1 construct": "also called his tagged cMET; Recombinant polyhistidine-tagged c-Met", "test": "BLI (ForteBio Octet), antibody loaded on Protein A tips, his tagged cMET in solution, 1:1 model", "procedure": "Protocol: All reagents are equilibrated and samples are brought to room temperature. Protein A sensor tips (Fortebio, #18-5010) are hydrated for 10 min in 1×PBS. Kinetic assays are run using the Octet software and procedure per manufacturer's instruction. Assay steps typically include: 1-2 min of equilibration in 1×PBS, 4 min of antibody loading (conc: 50 μg/mL in 1×PBS), 1-2 min of baseline stabilization, 4 min of antibody:antigen association, and 4 min of antibody:antigen dissociation. 1×PBS is used as the matrix throughout. Data are analyzed with Octet Data Analysis software, processed, and fit to the curve using 1:1 binding model to determine kinetic parameters (Kₐ, Kₒₙ and Koff)"}, "[1]": {"biological_target": "T2, Human EpCAM-Fc-his tagged (human)", "T2 construct": "also called Recombinant polyhistidine-tagged EpCAM-Fc; recombinant EpCAM", "T2 sequence (chain, as listed by the source)": "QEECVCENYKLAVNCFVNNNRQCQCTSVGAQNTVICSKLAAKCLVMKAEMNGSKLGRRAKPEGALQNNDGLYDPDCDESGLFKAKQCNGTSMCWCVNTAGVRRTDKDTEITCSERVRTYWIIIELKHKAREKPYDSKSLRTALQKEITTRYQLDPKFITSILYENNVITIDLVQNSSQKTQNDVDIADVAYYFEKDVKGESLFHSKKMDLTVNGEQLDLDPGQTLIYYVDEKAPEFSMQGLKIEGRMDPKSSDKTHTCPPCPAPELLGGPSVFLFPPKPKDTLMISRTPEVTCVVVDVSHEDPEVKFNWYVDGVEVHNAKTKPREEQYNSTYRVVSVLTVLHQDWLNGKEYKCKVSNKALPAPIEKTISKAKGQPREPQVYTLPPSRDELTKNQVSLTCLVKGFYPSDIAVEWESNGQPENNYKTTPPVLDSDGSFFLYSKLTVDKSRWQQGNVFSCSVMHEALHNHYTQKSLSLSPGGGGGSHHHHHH", "test": "BLI (ForteBio Octet), antibody loaded on Protein A tips, recombinant polyhistidine-tagged EpCAM-Fc in solution, 1:1 model", "procedure": "For Octet analysis, all reagents and samples are brought to room temperature. Protein A sensor tips (ForteBio, #18-5010) are hydrated for 10 minutes in 1×PBS. Assay steps include: 1-2 minutes of equilibration in 1×PBS, 4 minutes of antibody loading (concentration of 50 μg/ml in 1×PBS), 1-2 minutes of baseline stabilization, 4 minutes of antibody:antigen association, and 4 minutes of antibody:antigen dissociation. 1×PBS is used as the matrix throughout. Data are analyzed with Octet Data Analysis software, processed, and fit to a 1:1 binding model to determine kinetic parameters (Kd, kₒₙ and kdiss).\nTable A-2 describes approximate EpCAM binding affinity and dissociation rate as determined for Ab#1, Ab#2, Ab#3, Ab#4, Ab#5, Ab#6, Ab#7, Ab#8, Ab#9, Ab#10, Ab#11, Ab#12, and Ab#13."}},
  "data": [
    {"binder": "B1", "values": [
      {"measurement": "Kd", "setting": "cMet-his", "value": 1.3, "unit": "nM"}
    ]},
    {"binder": "B2", "values": [
      {"measurement": "Kd", "setting": "cMet-his", "value": 1.24, "unit": "nM"}
    ]},
    {"binder": "B3", "values": [
      {"measurement": "Kd", "setting": "cMet-his", "value": 1.26, "unit": "nM"}
    ]},
    {"binder": "B4", "values": [
      {"measurement": "Kd", "setting": "cMet-his", "value": 1.29, "unit": "nM"}
    ]},
    {"binder": "B5", "values": [
      {"measurement": "Kd", "setting": "cMet-his", "value": 1.25, "unit": "nM"}
    ]},
    {"binder": "B6", "values": [
      {"measurement": "Kd", "setting": "[1]", "value": 24.5, "unit": "nM"},
      {"measurement": "koff", "setting": "[1]", "value": 0.00166, "unit": "s⁻¹"}
    ]}
  ]
}
